The results in this text go back to patent publication US20040053357A1 (ICAGEN, published 2004).

The target of the experiment is T1, Kv2.2 (UniProt Q92953 1-911, limits assumed).
T1 sequence (looked up): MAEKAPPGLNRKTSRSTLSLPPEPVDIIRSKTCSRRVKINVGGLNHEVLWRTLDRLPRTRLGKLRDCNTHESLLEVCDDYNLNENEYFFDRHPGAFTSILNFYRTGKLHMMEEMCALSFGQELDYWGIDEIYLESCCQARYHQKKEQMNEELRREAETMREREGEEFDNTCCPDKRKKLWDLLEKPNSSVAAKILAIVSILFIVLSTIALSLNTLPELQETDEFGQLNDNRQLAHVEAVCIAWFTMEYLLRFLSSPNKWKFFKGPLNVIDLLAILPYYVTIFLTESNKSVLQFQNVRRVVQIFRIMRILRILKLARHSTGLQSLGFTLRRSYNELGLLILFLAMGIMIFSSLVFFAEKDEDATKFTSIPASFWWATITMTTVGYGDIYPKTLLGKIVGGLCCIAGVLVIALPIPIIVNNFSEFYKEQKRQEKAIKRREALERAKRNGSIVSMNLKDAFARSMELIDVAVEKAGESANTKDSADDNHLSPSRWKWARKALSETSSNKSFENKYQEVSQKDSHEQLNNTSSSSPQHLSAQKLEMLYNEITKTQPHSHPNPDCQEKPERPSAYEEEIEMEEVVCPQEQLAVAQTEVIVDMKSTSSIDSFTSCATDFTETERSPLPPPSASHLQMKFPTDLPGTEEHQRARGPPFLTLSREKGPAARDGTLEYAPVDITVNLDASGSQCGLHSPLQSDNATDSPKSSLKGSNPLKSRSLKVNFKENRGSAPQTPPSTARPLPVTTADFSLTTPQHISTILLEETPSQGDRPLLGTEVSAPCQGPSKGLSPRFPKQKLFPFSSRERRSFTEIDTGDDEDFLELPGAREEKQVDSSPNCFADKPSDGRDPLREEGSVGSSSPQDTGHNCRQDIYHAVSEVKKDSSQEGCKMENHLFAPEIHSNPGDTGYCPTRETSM
Nature of the experiment: cell-based or functional assay.

B1: human Kv10.1 (other)
chain: MLKQSERRRSWSYRPWNTTENEGSQHRRSICSLGARSGSQASIHGWTEGNYNYYIEEDEDGEEEDQWKDDLAEEDQQAGEVTTAKPEGPSDPPALLSTLNVNVGGHSYQLDYCELAGFPKTRLGRLATSTSRSRQLSLCDDYEEQTDEYFFDRDPAVFQLVYNFYLSGVLLVLDGLCPRRFLEELGYWGVRLKYTPRCCRICFEERRDELSERLKIQHELRAQAQVEEAEELFRDMRFYGPQRRRLWNLMEKPFSSVAAKAIGVASSTFVLVSVVALALNTVEEMQQHSGQGEGGPDLRPILEHVEMLCMGFFTLEYLLRLASTPDLRRFARSALNLVDLVAILPLYLQLLLECFTGEGHQRGQTVGSVGKVGQVLRVMRLMRIFRILKLARHSTGLRAFGFTLRQCYQQVGCLLLFIAMGIFTFSAAVYSVEHDVPSTNFTTIPHSWWWAAVSISTVGYGDMYPETHLGRFFAFLCIAFGIILNGMPISILYNKFSDYYSKLKAYEYTTIRRERGEVNFMQRARKKIAECLLGSNPQLTPRQEN
For B1, the “rate of activation at 0 mV” value was about 2 fold.
